Paper PMC9239988 (Nature Communications, 2022)

B1: tick-borne encephalitis virus (TBEV) soluble envelope protein E (sE) (domain or fragment)
chain: SRCTHLENRDFVTGTQGTTRVTLVLELGGCVTITAEGKPSMDVWLDAIYQENPAKTREYCLHAKLSDTKVAARCPTMGPATLAEEHQGGTVCKRDQSDRGWGNHCGLFGKGSIVACVKAACEAKKKATGHVYDANKIVYTVKVEPHTGDYVAANETHSGRKTASFTISSEKTILTMGEYGDVSLLCRVASGVDLAQTVILELDKTVEHLPTAWQVHRDWFNDLALPWKHEGAQNWNNAERLVEFGAPHAVKMDVYNLGDQTGVLLKALAGVPVAHIEGTKYHLKSGHVTCEVGLEKLKMKGLTYTMCDKTKFTWKRAPTDSGHDTVVMEVTFSGTKPCRIPVRAVAHGSPDVNVAMLITPNPTIENNGGGFIEMQLPPGDNIIYVGELSHQWFQKGSSIG

Legend:
[1] = molecular target: tick-borne encephalitis virus (TBEV) pr, the pr part of prM (aa 1-88) (tick-borne encephalitis virus strain Neudoerfl); experiment: SPR; […] ([…] to 7.8 nM), […], pH 5.5; 1:1 model; […]
SEC-MALS = molecular target: the molecule itself; experiment: SEC-MALS

| Molecule | Kd [1] [µM] | stoichiometry N (SEC-MALS) |
| --- | --- | --- |
| tick-borne encephalitis virus (TBEV) soluble envelope protein E (sE) (from UniProt P14336 281-680) (domain or fragment) | 0.066 to 10 |  |
| B1 |  | 2 |
